Data: PMC10789646, “Uncovering the non-histone interactome of the BRPF1 bromodomain using site-specific azide-acetyllysine photochemistry” (The Journal of Biological Chemistry, 2023)
Where no end group is shown, it is not given here.

B1: WT BRPF1 bromodomain (domain or fragment)
chain: MEMQLTPFLILLRKTLEQLQEKDTGNIFSEPVPLSEVPDYLDHIKKPMDFFTMKQNLEAYRYLNFDDFEEDFNLIVSNCLKYNAKDTIFYRAAVRLREQGGAVLRQARRQAEKMG
notes: bromodomain of bromodomain-PHD finger protein 1 (BRPF1); vector pNIC28-Bsa4; also called bromodomain-PHD finger protein 1 bromodomain; source: E. coli One Shot BL21 star (DE3), purified (Ni-NTA, Superdex-75)

How the values were obtained:
[1] = target: B1; test: ITC; peptide (1.5 to 1.8 mM, syringe) injected into protein (80 to 100 μM, cell); 15 °C; 50 mM Hepes pH 7.5, 200 mM NaCl, 5% glycerol; single-binding site model; details: both partners purified
[2] = target: histone H4K5acK8ac peptide 2 (acetyl-lysine at K5 and K8); test: as above; details: both partners purified

Kd [1]	Kd [2]	Binder
250 ± 10.2 µM	–	RVGLVAK(Ac)GLLLK(Ac)G (holds the KGLLLK (100-105) motif; also called RVGLVAKacGLLLKacG 8; source: synthetic peptide (GL Biochem Ltd and S. Biochem Ltd, HPLC purified)) [diacetylated ILF3 peptide 8]
–	24.6 ± 3.1 µM	B1
–	21.6 ± 2.1 µM	BRPF1 bromodomain N651AzF (domain or fragment, 4-azido-L-phenylalanine (AzF) at 651, bromodomain of BRPF1 with the unnatural amino acid 4-azido-L-phenylalanine in place of N651; also called BRPF1-N651AzF; engineered BRPF1 bromodomain; source: E. coli One Shot BL21 Star (DE3) with pEVOL-pAzF (amber suppression), purified (Ni-NTA, Superdex-75); not shown: 6xHis, N-terminal, kept) MEMQLTPFLILLRKTLEQLQEKDTGFIFSEPVPLSEVPDYLDHIKKPMDFFTMKQNLEAYRYLNFDDFEEDFNLIVSNCLKYNAKDTIFYRAAVRLREQGGAVLRQARRQAEKMG
